Measurements: article PMC9598796 (2022)

Molecular target: biotinylated Stx2a holotoxin (Shiga toxin-producing E. coli (STEC), UniProt P09385;P09386)
Experiment: BLI

biotinylated Stx2a holotoxin, sequence (P09385 23-319, chain 1 of 2): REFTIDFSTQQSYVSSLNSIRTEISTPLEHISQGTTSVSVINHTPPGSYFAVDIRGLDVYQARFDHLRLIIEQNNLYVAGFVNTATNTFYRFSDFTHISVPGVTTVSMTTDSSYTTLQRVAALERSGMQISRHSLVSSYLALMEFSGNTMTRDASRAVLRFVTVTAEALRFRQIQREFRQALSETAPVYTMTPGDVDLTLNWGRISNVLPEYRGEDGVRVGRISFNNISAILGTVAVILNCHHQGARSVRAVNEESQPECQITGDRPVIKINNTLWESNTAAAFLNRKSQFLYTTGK
biotinylated Stx2a holotoxin, sequence (P09386 20-89, chain 2 of 2): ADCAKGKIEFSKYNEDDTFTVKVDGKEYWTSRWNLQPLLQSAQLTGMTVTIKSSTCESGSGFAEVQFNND

B1: DARPin #3 (designed binder)
chain: GKKLLEAARAGQDDEVRILMANGADVNACDSNGRTPLHLAAVRGHLEIVEVLLKNGADVNAWDVIGKTPLHLAADGGHLEIVEVLLKNGADVNAWDLIGRTPLHLAALDGHLEIVEVLLEHGADVNAYDRPGHTPLHLAARRGHLEIVEVLLKYGADVNAQDKFGKTAFDISIDNGNEDLAEILQ
Question: How did the koff turn out when B1 was run?
Answer: The koff was 0.0438 s⁻¹.

B2: dimeric DARPin SD5 (#3-SHT) (designed binder)
chain: GKKLLEAARAGQDDEVRILMANGADVNACDSNGRTPLHLAAVRGHLEIVEVLLKNGADVNAWDVIGKTPLHLAADGGHLEIVEVLLKNGADVNAWDLIGRTPLHLAALDGHLEIVEVLLEHGADVNAYDRPGHTPLHLAARRGHLEIVEVLLKYGADVNAQDKFGKTAFDISIDNGNEDLAEILQGGGGSGGGGSGGGGSGGGGSGKKLLEAARAGQDDEVRILVANGADVNAGDPFGFTPLHLAALYGHLEIVEVLLKNGADVNAHEEYGFTPLHLAAVVSHMEIVEVLLNNGADVNARDNQGGSPLHLASHTGHLEIVEVLLKQGADVNAQDKFGKTAYDISIDIGNEDLAEILQ
Question: With B2 as the binder, how does the koff read?
Answer: Its koff is 0.0126 s⁻¹.
